Laboratory results published in patent publication US20170283484A1.

What follows are substances tested against AP33 antibody (wild type mouse monoclonal) (assay: peptide inhibition ELISA: antibody pre-incubated with peptide, then transferred to E2-coated plates (competitor: E2) [panel AP33]).
AP33 antibody (wild type mouse monoclonal), sequence (VH, as listed by the source, chain 1 of 2): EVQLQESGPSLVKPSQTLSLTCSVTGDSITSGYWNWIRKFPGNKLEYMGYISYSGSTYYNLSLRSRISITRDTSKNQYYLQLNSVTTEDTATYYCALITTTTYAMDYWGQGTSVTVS
AP33 antibody (wild type mouse monoclonal), sequence (VL, as listed by the source, chain 2 of 2): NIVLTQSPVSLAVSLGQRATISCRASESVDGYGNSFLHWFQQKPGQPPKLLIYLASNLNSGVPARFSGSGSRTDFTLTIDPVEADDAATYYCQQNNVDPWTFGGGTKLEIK

| Substance | IC50 (read off the curve) |
| --- | --- |
| peptide corresponding to the WT AP33 epitope (aa residues 412-424 of E2) (from UniProt P27958 412-424) | 0.1 µg/mL |

Each substance was assayed against HCV E2 envelope glycoprotein (hepatitis C virus) (UniProt P27958) (assay: ELISA of E2 on AP33 alanine mutants).
HCV E2 envelope glycoprotein (hepatitis C virus), sequence (P27958 384-746 limits assumed): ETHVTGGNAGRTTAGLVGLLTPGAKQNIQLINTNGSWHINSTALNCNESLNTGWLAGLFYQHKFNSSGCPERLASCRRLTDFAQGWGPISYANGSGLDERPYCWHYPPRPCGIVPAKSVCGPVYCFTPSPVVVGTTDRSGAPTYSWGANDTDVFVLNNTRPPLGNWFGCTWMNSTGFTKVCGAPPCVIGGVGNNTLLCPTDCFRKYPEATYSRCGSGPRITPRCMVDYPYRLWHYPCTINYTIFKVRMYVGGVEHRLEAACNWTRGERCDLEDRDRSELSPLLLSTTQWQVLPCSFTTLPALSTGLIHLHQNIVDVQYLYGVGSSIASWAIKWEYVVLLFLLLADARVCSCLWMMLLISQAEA

| Substance | reduction of binding relative to WT AP33 |
| --- | --- |
| AP33 mutant FL32A (antibody) | 90% |
| AP33 mutant IH95A (antibody) | 90% |
| AP33 mutant NL91A (antibody) | 90% |
| AP33 mutant WL96A (antibody) | 90% |
| AP33 mutant YH33A (antibody) | 90% |
| AP33 mutant YH58A (antibody) | 90% |
